The data set concerns the molecule itself. Briefly: SEC-MALS.

B1: His6-Plk4 PB1-PB2 (domain or fragment, D. melanogaster, UniProt O97143 382-602, looked up)
chain: DRISVPPLNTKRLLPTRYKTKNAIMSILRNGEVVLEFLKFRPTYNEDRINDICRISDDGQRIIIYQPDPGRGLPVREQPPDLQIPSGDCVYNYDNLPSKHWKKYIYGARFVGLVKSKTPKVTYFSTLGKCQLMETMTDFEIRFYSGAKLLKTPSEGLKVYDRNGMLLSDYSCSESRSLIEHGNECFTHCVNISNALEVAQTKDNSCFPVTIGRRPITDVQP
For B1, the “stoichiometry N” value was 2.

The record behind these values is PMC3496063 (Structure (London, England : 1993), 2012).
